Assay results from publication PMC10397247.

How the values were obtained:
Test in all cases: two-hybrid library CCmax;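 also: natural log of median RNA to DNA barcode read ratio; higher means stronger binding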
4H2611-AA = target: T1, 4H2611-AA; settings: mean of both orientations
T1 chain: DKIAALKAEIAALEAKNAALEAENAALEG

4H3340-AA = target: T2, 4H3340-AA; settings: mean of both orientations
T2 chain: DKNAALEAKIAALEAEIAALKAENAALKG

4H963-AA = target: T3, 4H963-AA; settings: mean of both orientations
T3 chain: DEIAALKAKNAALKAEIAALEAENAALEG

4H_APH = target: T4, 4H_APH; settings: mean of both orientations
T4 chain: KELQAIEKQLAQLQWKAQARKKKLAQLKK

4H2931-AA = target: T5, 4H2931-AA; settings: mean of both orientations
T5 chain: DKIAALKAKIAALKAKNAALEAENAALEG

4H376-AA = target: T6, 4H376-AA; settings: mean of both orientations
T6 chain: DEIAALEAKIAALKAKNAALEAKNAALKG

4H_GCN4 = target: 4H_GCN4
Sequence of 4H_GCN4 (chain, as listed by the source): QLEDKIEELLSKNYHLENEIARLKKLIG

4H56-AA = target: T7, 4H56-AA; settings: mean of both orientations
T7 chain: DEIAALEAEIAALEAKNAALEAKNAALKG

4H2592-AA = target: T8, 4H2592-AA
T8 chain: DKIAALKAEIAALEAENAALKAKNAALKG

4H3015-AA = target: T9, 4H3015-AA; settings: mean of both orientations
T9 chain: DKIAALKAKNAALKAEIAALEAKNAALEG

4H406-AA = target: T10, 4H406-AA; settings: mean of both orientations
T10 chain: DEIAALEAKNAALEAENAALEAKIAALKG

4H2774-AA = target: T11, 4H2774-AA; settings: mean of both orientations
T11 chain: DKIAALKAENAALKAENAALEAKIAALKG

4H2732-AA = target: T12, 4H2732-AA; settings: mean of both orientations
T12 chain: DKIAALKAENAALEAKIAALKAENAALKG

4H452-AA = target: T13, 4H452-AA; settings: mean of both orientations
T13 chain: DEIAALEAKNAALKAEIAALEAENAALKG

4H3381-AA = target: T14, 4H3381-AA; settings: mean of both orientations
T14 chain: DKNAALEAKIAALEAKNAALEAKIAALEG

4H3001-AA = target: T15, 4H3001-AA; settings: mean of both orientations
T15 chain: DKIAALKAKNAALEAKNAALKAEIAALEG

4H3073-AA = target: T16, 4H3073-AA; settings: mean of both orientations
T16 chain: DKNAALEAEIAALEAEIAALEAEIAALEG

GCN2_T = target: GCN2_T
4H347-AA = target: T17, 4H347-AA; settings: mean of both orientations
T17 chain: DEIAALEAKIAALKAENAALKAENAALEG

4H688-AA = target: T18, 4H688-AA; settings: mean of both orientations
T18 chain: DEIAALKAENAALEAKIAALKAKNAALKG

4H3493-AA = target: T19, 4H3493-AA; settings: mean of both orientations
T19 chain: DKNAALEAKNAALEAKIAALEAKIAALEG

4H3438-AA = target: T20, 4H3438-AA; settings: mean of both orientations
T20 chain: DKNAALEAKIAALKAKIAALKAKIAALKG

4H_BCR = target: T21, 4H_BCR; settings: mean of both orientations
T21 chain: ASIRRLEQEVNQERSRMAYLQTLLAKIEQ

4H454-AA = target: T22, 4H454-AA; settings: mean of both orientations
T22 chain: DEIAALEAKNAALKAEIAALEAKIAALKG

4H2754-AA = target: T23, 4H2754-AA; settings: mean of both orientations
T23 chain: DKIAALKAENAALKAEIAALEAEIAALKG

4H2642-AA = target: T24, 4H2642-AA; settings: mean of both orientations
T24 chain: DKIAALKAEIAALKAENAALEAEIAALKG

4H3627-AA = target: T25, 4H3627-AA; settings: mean of both orientations
T25 chain: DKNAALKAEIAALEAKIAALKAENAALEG

4H678-AA = target: T26, 4H678-AA; settings: mean of both orientations
T26 chain: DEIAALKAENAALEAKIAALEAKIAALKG

4H2165-AA = target: T27, 4H2165-AA; settings: mean of both orientations
T27 chain: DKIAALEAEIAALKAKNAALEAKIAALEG

4H3427-AA = target: T28, 4H3427-AA; settings: mean of both orientations
T28 chain: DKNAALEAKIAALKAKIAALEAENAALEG

4H993-AA = target: T29, 4H993-AA; settings: mean of both orientations
T29 chain: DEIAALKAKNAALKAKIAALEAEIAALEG

4H906-AA = target: T30, 4H906-AA; settings: mean of both orientations
T30 chain: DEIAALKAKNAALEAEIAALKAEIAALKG

4H3606-AA = target: T31, 4H3606-AA; settings: mean of both orientations
T31 chain: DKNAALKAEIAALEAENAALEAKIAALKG

4H2505-AA = target: T32, 4H2505-AA; settings: mean of both orientations
T32 chain: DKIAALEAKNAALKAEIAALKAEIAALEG

4H2354-AA = target: T33, 4H2354-AA; settings: mean of both orientations
T33 chain: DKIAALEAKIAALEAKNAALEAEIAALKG

4H234-AA = target: T34, 4H234-AA; settings: mean of both orientations
T34 chain: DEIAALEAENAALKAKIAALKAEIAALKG

4H3112-AA = target: T35, 4H3112-AA; settings: mean of both orientations
T35 chain: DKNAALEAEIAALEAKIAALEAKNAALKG

4H2151-AA = target: T36, 4H2151-AA
T36 chain: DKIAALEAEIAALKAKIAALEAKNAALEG

4H2883-AA = target: T37, 4H2883-AA; settings: mean of both orientations
T37 chain: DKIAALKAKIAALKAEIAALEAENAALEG

4H2949-AA = target: T38, 4H2949-AA; settings: mean of both orientations
T38 chain: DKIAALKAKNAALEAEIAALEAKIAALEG

4H605-AA = target: T39, 4H605-AA; settings: mean of both orientations
T39 chain: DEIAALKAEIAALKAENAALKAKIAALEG

4H2944-AA = target: T40, 4H2944-AA; settings: mean of both orientations
T40 chain: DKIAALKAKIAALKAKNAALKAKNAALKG

4H2277-AA = target: T41, 4H2277-AA; settings: mean of both orientations
T41 chain: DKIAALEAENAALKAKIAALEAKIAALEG

4H2190-AA = target: T42, 4H2190-AA; settings: mean of both orientations
T42 chain: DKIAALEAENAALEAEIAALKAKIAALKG

4H2729-AA = target: T43, 4H2729-AA; settings: mean of both orientations
T43 chain: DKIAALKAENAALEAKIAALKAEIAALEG

4H2617-AA = target: T44, 4H2617-AA; settings: mean of both orientations
T44 chain: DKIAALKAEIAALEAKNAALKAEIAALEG

4H2837-AA = target: T45, 4H2837-AA; settings: mean of both orientations
T45 chain: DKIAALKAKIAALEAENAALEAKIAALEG

4H3655-AA = target: T46, 4H3655-AA; settings: mean of both orientations
T46 chain: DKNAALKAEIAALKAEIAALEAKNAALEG

4H3844-AA = target: T47, 4H3844-AA; settings: mean of both orientations
T47 chain: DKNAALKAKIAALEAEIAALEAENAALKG

4H566-AA = target: T48, 4H566-AA; settings: mean of both orientations
T48 chain: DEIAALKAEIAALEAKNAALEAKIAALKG

4H48-AA = target: T49, 4H48-AA; settings: mean of both orientations
T49 chain: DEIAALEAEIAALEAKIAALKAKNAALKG

4H881-AA = target: T50, 4H881-AA; settings: mean of both orientations
T50 chain: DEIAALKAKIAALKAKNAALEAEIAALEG

4H717-AA = target: T51, 4H717-AA; settings: mean of both orientations
T51 chain: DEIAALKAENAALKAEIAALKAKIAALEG

4H3343-AA = target: T52, 4H3343-AA; settings: mean of both orientations
T52 chain: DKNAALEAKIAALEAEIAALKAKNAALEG

4H2393-AA = target: T53, 4H2393-AA; settings: mean of both orientations
T53 chain: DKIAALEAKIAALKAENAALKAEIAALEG

4H794-AA = target: T54, 4H794-AA; settings: mean of both orientations
T54 chain: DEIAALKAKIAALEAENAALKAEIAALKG

4H317-AA = target: T55, 4H317-AA; settings: mean of both orientations
T55 chain: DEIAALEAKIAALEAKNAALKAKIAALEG

4H429-AA = target: T56, 4H429-AA; settings: mean of both orientations
T56 chain: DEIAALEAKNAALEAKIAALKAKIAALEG

4H2466-AA = target: T57, 4H2466-AA; settings: mean of both orientations
T57 chain: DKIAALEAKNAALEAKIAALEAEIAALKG

4H342-AA = target: T58, 4H342-AA; settings: mean of both orientations
T58 chain: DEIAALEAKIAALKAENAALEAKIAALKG

DKIAALKAEIAALEAENAALKAKNAALKG [4H2592-AA] was tested. Which interaction score (4H2611-AA) did it give?
The interaction score was 0.971.

What about the interaction score (4H3340-AA) of the same binder?
The interaction score was 0.143.

What about the interaction score (4H963-AA) of the same binder?
The interaction score was -0.435.

What about the interaction score (4H_APH) of the same binder?
Its interaction score is -1.66.

And the interaction score (4H2931-AA)?
Its interaction score is 1.75.

What about the interaction score (4H376-AA) of the same binder?
Its interaction score is 0.226.

And the interaction score (4H_GCN4)?
The interaction score was -1.33.

What about the interaction score (4H56-AA) of the same binder?
Its interaction score is -0.726.

What about the interaction score (4H2592-AA) of the same binder?
Its interaction score is 1.34.

And the interaction score (4H3015-AA)?
The interaction score was -1.39.

What about the interaction score (4H406-AA) of the same binder?
Its interaction score is -1.19.

What about the interaction score (4H2774-AA) of the same binder?
The interaction score was 0.283.

What about the interaction score (4H2732-AA) of the same binder?
The interaction score was 0.248.

What about the interaction score (4H452-AA) of the same binder?
The interaction score was -0.641.

And the interaction score (4H3381-AA)?
The interaction score was -1.72.

What about the interaction score (4H3001-AA) of the same binder?
The interaction score was -1.68.

And the interaction score (4H3073-AA)?
The interaction score was -0.000754.

What about the interaction score (GCN2_T) of the same binder?
Its interaction score is -1.04.

And the interaction score (4H347-AA)?
Its interaction score is 1.59.

And the interaction score (4H688-AA)?
The interaction score was -1.42.

And the interaction score (4H3493-AA)?
Its interaction score is -1.21.

And the interaction score (4H3438-AA)?
The interaction score was -0.819.

What about the interaction score (4H_BCR) of the same binder?
The interaction score was -1.75.

What does the source list for DKIAALEAEIAALKAKIAALEAKNAALEG [4H2151-AA]?
interaction score (4H454-AA): -1.11; interaction score (4H2754-AA): -1.27; interaction score (4H2642-AA): -1.42; interaction score (4H3627-AA): -0.182; interaction score (4H678-AA): -1.37; interaction score (4H2165-AA): -0.932; interaction score (4H3427-AA): -1.02; interaction score (4H993-AA): -1.43; interaction score (4H906-AA): -1.28; interaction score (4H3606-AA): -1.24; interaction score (4H2505-AA): -1.6; interaction score (4H2354-AA): -1.44; interaction score (4H234-AA): -1.58; interaction score (4H3112-AA): -0.356; interaction score (4H2151-AA): 1.45; interaction score (4H2883-AA): 0.105; interaction score (4H2949-AA): -0.904; interaction score (4H605-AA): -1.4; interaction score (4H2944-AA): -1.39; interaction score (4H2277-AA): -1.38; interaction score (4H2190-AA): -1.15; interaction score (4H2729-AA): -0.63; interaction score (4H2617-AA): -0.476; interaction score (4H2837-AA): -1.4; interaction score (4H3655-AA): -0.942; interaction score (4H3844-AA): -0.871; interaction score (4H566-AA): -1.47; interaction score (4H48-AA): 0.747; interaction score (4H881-AA): -1.51; interaction score (4H717-AA): -1.61; interaction score (4H3343-AA): -1.19; interaction score (4H2393-AA): -1.54; interaction score (4H794-AA): -1.95; interaction score (4H317-AA): -0.983; interaction score (4H429-AA): -1.48; interaction score (4H2466-AA): -1.42; interaction score (4H342-AA): -1.26
